{"source": "paper doi:10.1101/2021.06.06.447241", "about": "(bioRxiv, 2021)", "binders": {"B1": {"name": "Ydj1 (Hsp40) (natural protein)", "chain": "MVKETKFYDILGVPVTATDVEIKKAYRKCALKYHPDKNPSEEAAEKFKEASAAYEILSDPEKRDIYDQFGEDGLSGAGGAGGFPGGGFGFGDDIFSQFFGAGGAQRPRGPQRGKDIKHEISASLEELYKGRTAKLALNKQILCKECEGRGGKKGAVKKCTSCNGQGIKFVTRQMGPMIQRFQTECDVCHGTGDIIDPKDRCKSCNGKKVENERKILEVHVEPGMKDGQRIVFKGEADQAPDVIPGDVVFIVSERPHKSFKRDGDDLVYEAEIDLLTAIAGGEFALEHVSGDWLKVGIVPGEVIAPGMRKVIEGKGMPIPKYGGYGNLIIKFTIKFPENHFTSEENLKKLEEILPPRIVPAIPKKATVDECVLADFDPAKYNRTRASRGGANYDSDEEEQGGEGVQCASQ"}}, "target": "Ssa1 (Hsp70) (Saccharomyces cerevisiae, UniProt P10591 1-642)", "sequence (P10591 whole entry)": "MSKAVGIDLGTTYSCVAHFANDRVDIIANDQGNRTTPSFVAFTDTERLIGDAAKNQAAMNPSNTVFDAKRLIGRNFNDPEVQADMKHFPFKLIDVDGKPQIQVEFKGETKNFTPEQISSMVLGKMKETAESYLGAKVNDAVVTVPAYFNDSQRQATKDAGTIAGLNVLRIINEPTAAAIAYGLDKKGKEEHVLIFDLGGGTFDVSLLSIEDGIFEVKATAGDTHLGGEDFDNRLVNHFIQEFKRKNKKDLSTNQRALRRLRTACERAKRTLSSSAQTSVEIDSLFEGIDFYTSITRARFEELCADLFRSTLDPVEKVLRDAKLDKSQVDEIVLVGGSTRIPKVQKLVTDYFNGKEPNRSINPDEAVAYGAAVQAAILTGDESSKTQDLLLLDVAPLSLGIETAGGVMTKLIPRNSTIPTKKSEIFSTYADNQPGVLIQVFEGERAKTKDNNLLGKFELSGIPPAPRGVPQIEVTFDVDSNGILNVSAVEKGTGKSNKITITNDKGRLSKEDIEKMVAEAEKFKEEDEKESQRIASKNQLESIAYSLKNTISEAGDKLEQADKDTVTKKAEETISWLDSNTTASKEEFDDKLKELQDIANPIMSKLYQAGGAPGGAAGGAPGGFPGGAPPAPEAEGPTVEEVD", "assay": "cross-linking"}
{"binder": "B1", "values": [{"measurement": "binding result", "value": "binds"}]}
